The source of these data is PMC8136821.

This assay addresses H. pylori RNase R (HpRNase R), recombinant, His-tagged (H. pylori). Put plainly: AUC.

A word on the stoichiometry N: it is the number of molecules, sites or subunits per partner or assembly.

Sequence of H. pylori RNase R (HpRNase R), recombinant, His-tagged (H. pylori) (P56123 whole entry): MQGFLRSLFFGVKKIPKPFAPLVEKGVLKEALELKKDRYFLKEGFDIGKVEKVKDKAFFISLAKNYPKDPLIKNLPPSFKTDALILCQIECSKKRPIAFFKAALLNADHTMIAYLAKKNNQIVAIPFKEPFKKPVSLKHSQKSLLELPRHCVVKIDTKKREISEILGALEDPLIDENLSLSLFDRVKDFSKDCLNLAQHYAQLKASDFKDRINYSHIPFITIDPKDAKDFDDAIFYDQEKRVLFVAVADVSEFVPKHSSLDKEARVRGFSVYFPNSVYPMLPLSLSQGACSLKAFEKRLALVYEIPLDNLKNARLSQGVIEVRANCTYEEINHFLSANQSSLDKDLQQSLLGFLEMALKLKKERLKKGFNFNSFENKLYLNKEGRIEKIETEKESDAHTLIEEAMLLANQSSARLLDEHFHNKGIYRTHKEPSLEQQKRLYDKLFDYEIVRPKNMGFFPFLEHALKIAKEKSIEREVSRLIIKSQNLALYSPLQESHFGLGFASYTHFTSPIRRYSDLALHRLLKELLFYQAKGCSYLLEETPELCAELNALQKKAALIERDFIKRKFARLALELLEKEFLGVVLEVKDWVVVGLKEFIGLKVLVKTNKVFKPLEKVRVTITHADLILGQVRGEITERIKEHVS
Sequence of RhpA DEAD-box RNA helicase of H. pylori, recombinant, His-tagged (enzyme) (B9XXL6 whole entry): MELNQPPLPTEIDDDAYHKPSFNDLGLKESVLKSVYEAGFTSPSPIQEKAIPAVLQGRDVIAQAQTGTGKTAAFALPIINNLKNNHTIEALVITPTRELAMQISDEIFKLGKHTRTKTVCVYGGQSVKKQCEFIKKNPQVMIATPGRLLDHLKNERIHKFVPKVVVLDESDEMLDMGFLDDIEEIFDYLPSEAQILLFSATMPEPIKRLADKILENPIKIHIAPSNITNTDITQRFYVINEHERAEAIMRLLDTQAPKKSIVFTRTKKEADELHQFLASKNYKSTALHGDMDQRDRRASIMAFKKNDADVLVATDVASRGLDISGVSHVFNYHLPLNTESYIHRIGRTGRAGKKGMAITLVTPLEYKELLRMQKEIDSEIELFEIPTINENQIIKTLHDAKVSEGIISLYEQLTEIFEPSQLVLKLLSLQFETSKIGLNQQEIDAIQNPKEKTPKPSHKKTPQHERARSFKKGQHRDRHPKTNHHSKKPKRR

Consider “RhpA DEAD-box RNA helicase of H. pylori, recombinant, His-tagged (enzyme)”, for which the stoichiometry N is 1.
